T1: Orencia
T1 sequence (chain, INN chains, looked up, looked up): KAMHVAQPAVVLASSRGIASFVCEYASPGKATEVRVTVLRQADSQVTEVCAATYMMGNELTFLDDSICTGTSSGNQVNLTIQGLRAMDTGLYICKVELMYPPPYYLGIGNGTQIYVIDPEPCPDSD


How the values were obtained:
[1] = target: T1, Orencia; assay: ELISA, MBP fusion in E. coli lysate on Orencia
Description: (§1) 10 μL of E. coli cultured medium was added with 90 μL of PBS and 40 μL of lysis reagent (20 μL BugBuster Protein Extraction Reagent (Novagen), 20 μL Lysozyme solution 2.5 mg/mL) to lyse E. coli cells for 1 hour at room temperature. […] In parallel, antigen protein was immobilized overnight at 4° C. in 384-well plates at 100 ng/20 μL per well, and each well was washed twice with 100 μL/well of TBST, added with 100 μL/well of 5% skim milk solution (TBST) for blocking for 1 hour at room temperature, and washed twice with 100 μL/well of TBST to obtain antigen-immobilized plates. 20 μL/well of blocking-treated E. coli extract was added to the antigen-immobilized plates and gently stirred at room temperature using a plate mixer. […] The plates were washed 5 times with 100 μL/well of TBST, and binding of cyclic peptides to the antigen was detected by 20 μL/well of chromogenic substrate (0.4 mg/mL 3,3′,5,5′-Tetramethyl-benzidine, 0.01% hydrogen peroxide). After 15 minutes of reaction at room temperature, the reaction was stopped with 20 μL/well of 2N HCl, and absorbance at 450 nm was measured using a plate reader (infinite F200: TECAN) (Table 5).
(§2) An Error-Prone Library was prepared based on H12SSI-Ctla4-3-02, and Affinity Maturation selection experiments were performed. The cyclic peptide genes obtained in each round were subcloned, 94 single colonies were cultured in 96-well plates, and the CTLA-4 binding activity of each MBP-fused cyclic peptide was examined by ELISA.

[2] = target: T1, Orencia; assay: ELISA, signal on Orencia over SA
Description: as §1, §2

Binder | ELISA A450 [1] | S/N(SA) [2]
GGCKHPFLPVVSHHFCGG (peptide, not shown: large carriers; small tags and cut ends, MBP fusion; also called #13) [C4-302mat-3-100-9] | 0.779 | 14.4
GGCMHPFLPVASHHFCGR (peptide, not shown: large carriers; small tags and cut ends, MBP fusion; also called #6) [C4-302mat-3-1-22] | 1.11 | 18.9
GSCMHPFLPVASRHFCGR (peptide, not shown: large carriers; small tags and cut ends, MBP fusion; also called #23) [C4-302mat-3-1-31] | 0.868 | 13.2
GGCMHPFLPVASHHFCGG (peptide, not shown: large carriers; small tags and cut ends, MBP fusion) [C4-302mat-1-1-35] | 0.534 | 11.2
GGCMHPFLLVVSHHFCGG (peptide, not shown: large carriers; small tags and cut ends, MBP fusion; also called original clone; Original) [H12SSI-Ctla4-3-02 (MBP fusion)] | 0.228 | 4.3
GGCMHPFLLVVSRHFCGR (peptide, not shown: large carriers; small tags and cut ends, MBP fusion) [C4-302mat-2-100-40] | 0.204 | 3.9
GGCKHPYLPVASHHFCRG (peptide, not shown: large carriers; small tags and cut ends, MBP fusion; also called #14) [C4-302mat-3-1-10] | 0.586 | 10.3
GGCMHPFLQVVSHHFCGS (peptide, not shown: large carriers; small tags and cut ends, MBP fusion; also called #26) [C4-302mat-2-1-35] | 0.904 | 17.9
GGCMHPFLPVVSHHFCRG (peptide, not shown: large carriers; small tags and cut ends, MBP fusion) [C4-302mat-2-100-18] | 0.857 | 16.1
GGCMHPFLPVTSHHFCGG (peptide, not shown: large carriers; small tags and cut ends, MBP fusion; also called #17) [C4-302mat-2-1-3] | 0.802 | 14.8
GGCMHPYLPVISHHFCGG (peptide, not shown: large carriers; small tags and cut ends, MBP fusion; also called #15) [C4-302mat-2-1-27] | 0.785 | 13.7
GGCMHPFLQVVSHHFCGG (peptide, not shown: large carriers; small tags and cut ends, MBP fusion; also called #27) [C4-302mat-2-100-4] | 0.545 | 9.3
GDCKHPYLLTVSHHFCGR (peptide, not shown: large carriers; small tags and cut ends, MBP fusion; also called #42) [C4-302mat-3-1-25] | 0.264 | 4.3
GGCRHPFLPIVSRHFCRG (peptide, not shown: large carriers; small tags and cut ends, MBP fusion; also called #11) [C4-302mat-3-1-45] | 0.689 | 11.2
GGCMHPFLPIVSHHFCGS (peptide, not shown: large carriers; small tags and cut ends, MBP fusion; also called #18) [C4-302mat-2-100-27] | 1.29 | 25.2
GGCVHPFLQVVSHHFCGG (peptide, not shown: large carriers; small tags and cut ends, MBP fusion; also called #29) [C4-302mat-1-100-23] | 0.25 | 5.4
GGCMHPFLQVASHHFCGG (peptide, not shown: large carriers; small tags and cut ends, MBP fusion) [C4-302mat-2-1-40] | 0.366 | 6.9
GGCMHPFLPILSHHFCAG (peptide, not shown: large carriers; small tags and cut ends, MBP fusion; also called #21) [C4-302mat-3-1-32] | 0.656 | 11.4
GGCKHPFLRVVSHHFCRR (peptide, not shown: large carriers; small tags and cut ends, MBP fusion; also called #34) [C4-302mat-2-1-12] | 0.51 | 8.5
GGCMHPYLLVASHHFCER (peptide, not shown: large carriers; small tags and cut ends, MBP fusion; also called #39) [C4-302mat-3-1-9] | 0.574 | 8.8
GGCMHPFLLVASHHFCGV (peptide, not shown: large carriers; small tags and cut ends, MBP fusion) [C4-302mat-2-1-37] | 0.12 | 2.3
GGCMHPFLPVASHHFCAG (peptide, not shown: large carriers; small tags and cut ends, MBP fusion) [C4-302mat-3-100-27] | 0.927 | 16.6
GGCVHPFLPVVSHHFCRG (peptide, not shown: large carriers; small tags and cut ends, MBP fusion; also called #12) [C4-302mat-3-100-20] | 0.221 | 3.7

Binder | ELISA A450 [1] | S/N(SA) [2]
GGCMHPFLPVVSRHFCGR (peptide, not shown: large carriers; small tags and cut ends, MBP fusion; also called #25) [C4-302mat-3-1-12] | 0.95 | 17.9
GGCLHPFLPLVSHHFCGG (peptide, not shown: large carriers; small tags and cut ends, MBP fusion; also called #9) [C4-302mat-2-1-38] | 0.807 | 16.4
GGCMHPFLRVVSHHFCGG (peptide, not shown: large carriers; small tags and cut ends, MBP fusion; also called #32) [C4-302mat-1-1-37] | 0.665 | 14.2
GGCMHPFLKIASHHFCGG (peptide, not shown: large carriers; small tags and cut ends, MBP fusion; also called #36) [C4-302mat-3-1-8] | 0.555 | 8.2
GGCMHPYLQVVSHHFCGR (peptide, not shown: large carriers; small tags and cut ends, MBP fusion) [C4-302mat-3-1-2] | 1.45 | 21.9
GGCLHPFLPVVSHHFCGD (peptide, not shown: large carriers; small tags and cut ends, MBP fusion; also called #8) [C4-302mat-2-1-2] | 1.2 | 23.5
GGCMHPFLQTVSHHFCGG (peptide, not shown: large carriers; small tags and cut ends, MBP fusion; also called #22) [C4-302mat-3-1-35] | 0.299 | 5.3
GGCMHPFLPVVSHHFCGA (peptide, not shown: large carriers; small tags and cut ends, MBP fusion) [C4-302mat-3-1-48] | 0.903 | 14.6
GGCMHPFLLTVSRHFCGG (peptide, not shown: large carriers; small tags and cut ends, MBP fusion; also called #44) [C4-302mat-3-1-11] | 0.412 | 8.1
GGCIHPFLQVVSHHFCGG (peptide, not shown: large carriers; small tags and cut ends, MBP fusion; also called #28) [C4-302mat-1-1-21] | 0.155 | 2.7
GGCMHPFLPVVSHHFCGG (peptide, not shown: large carriers; small tags and cut ends, MBP fusion) [C4-302mat-1-1-24] | 0.78 | 14.7
GGCMHPFLRIVSQHFCRR (peptide, not shown: large carriers; small tags and cut ends, MBP fusion; also called #35) [C4-302mat-2-1-24] | 0.14 | 2.4
GGCLHPFLPIVSHHFCGR (peptide, not shown: large carriers; small tags and cut ends, MBP fusion; also called clone #10; No. #10) [C4-302mat-3-100-44] | 1.14 | 18.5
GGCMHPYLLVVSRHFCGR (peptide, not shown: large carriers; small tags and cut ends, MBP fusion; also called #41) [C4-302mat-3-1-15] | 0.351 | 5.4
GGCMHPYLPVISHHFCGR (peptide, not shown: large carriers; small tags and cut ends, MBP fusion; also called #16) [C4-302mat-3-100-12] | 1.18 | 19.4
GGCMHPFLRVVSHHFCGR (peptide, not shown: large carriers; small tags and cut ends, MBP fusion; also called #33) [C4-302mat-3-1-14] | 0.985 | 15.5
GGCMHPFLPIASLHFCGR (peptide, not shown: large carriers; small tags and cut ends, MBP fusion; also called #20) [C4-302mat-3-1-23] | 1.21 | 19.7
GGCMHPFLPVVSHHFCGR (peptide, not shown: large carriers; small tags and cut ends, MBP fusion) [C4-302mat-3-100-37] | 1.17 | 18
GGCKHPFLLIVSHHFCGR (peptide, not shown: large carriers; small tags and cut ends, MBP fusion; also called #45) [C4-302mat-3-100-39] | 0.136 | 2.3
GGCMHPFLPVVSRHFCGG (peptide, not shown: large carriers; small tags and cut ends, MBP fusion; also called #24) [C4-302mat-3-1-5] | 0.438 | 5.9
GSCMHPFLLVASHHFCRG (peptide, not shown: large carriers; small tags and cut ends, MBP fusion; also called #38) [C4-302mat-2-100-33] | 0.117 | 2.3
GGCMHPYLLVVSHHFCGR (peptide, not shown: large carriers; small tags and cut ends, MBP fusion; also called #40) [C4-302mat-2-100-24] | 0.227 | 4
